Data on 5 molecules can be found in patent US20030224521, “Enhanced homologous recombination mediated by lambda recombination proteins” (The Gov. of the USA Secretary of the Department of Health …, published 2003).

This data set deals with T1, lambda Beta (Bet) (Bacteriophage lambda, UniProt P03698 P03698:1-261).
T1 sequence: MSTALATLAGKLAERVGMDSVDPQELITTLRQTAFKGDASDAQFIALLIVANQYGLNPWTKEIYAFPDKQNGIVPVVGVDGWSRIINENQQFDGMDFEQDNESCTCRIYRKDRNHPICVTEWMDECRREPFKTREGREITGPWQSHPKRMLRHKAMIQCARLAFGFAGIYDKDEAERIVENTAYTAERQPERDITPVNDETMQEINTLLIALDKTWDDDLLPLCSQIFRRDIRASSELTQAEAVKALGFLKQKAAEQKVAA
Put plainly: cell_activity; HME9, Exo and Gam co-expressed. Conditions: tags: expressed from pL of defective prophage in E. coli. As for the experimental part: Using the methods described in Examples 2, 3, 5, 10 and 11, lambda operon expression was heat-induced, cells were rendered electroporation-competent, and ssDNA oligonucleotides (200 ng each) were electroporated into E. coli HME9 strain cells. The electroporated ssDNA oligonucleotides included the 70-mer of SEQ ID NO: 11, a 60-mer constructed by removing the last 5 nucleotides from both the 5′ and 3′ ends of SEQ ID NO: 11, and a 50-mer, 40-mer, 30-mer, or 20-mer constructed by removing the last 10, 15, 20, or 25 nucleotides, respectively, from both the 5′ and 3′ ends of SEQ ID NO: 11. As in example 10, the ssDNA oligonucleotides used in this experiment were all designed to restore the galK+ gene upon successful recombination, thereby conferring upon the cell a Gal+ phenotype. Table 7 indicates the number of galK+ recombinants per viable cell, […].

B1: galK 40-mer oligo (ssDNA)
DNA: CCGTATTGCAGCAGCTTTATCATCTGCCGCTGGACGGCGC
As for B1, the activity is 0.0004 recombinants per viable cell.

B2: galK 60-mer oligo (ssDNA)
DNA: GCGGTCGGAACCGTATTGCAGCAGCTTTATCATCTGCCGCTGGACGGCGCACAAATCGCG
Regarding B2, the activity is 0.0006 recombinants per viable cell.

B3: galK 50-mer oligo (ssDNA)
DNA: CGGAACCGTATTGCAGCAGCTTTATCATCTGCCGCTGGACGGCGCACAAA
As to B3, the activity is 0.0004 recombinants per viable cell.

B4: galK 20-mer oligo (ssDNA)
DNA: GCAGCTTTATCATCTGCCGC
B4: the activity is 1e-06 recombinants per viable cell.

B5: galK 30-mer oligo (ssDNA)
DNA: TTGCAGCAGCTTTATCATCTGCCGCTGGAC
For B5, the activity was 4.7e-05 recombinants per viable cell.
